Data reported in publication PMC8971466.

Assay: SEC; SE-HPLC, TSK-gel SuperSW3000; 0.1 M phosphate, 0.1 M potassium sulfate pH 6.7; scFv at 0.1 mg/mL, 25 °C, 0.3 mL/min; monomer and dimer peaks told by molecular weight standards, percentages from peak areas

Which Monomer/dimer ratio (monomer %) does the source give for “L1, anti-VEGF scFv derived from bevacizumab with non-repetitive linker” here?
Its Monomer/dimer ratio (monomer %) is 95.7%.
